Article doi:10.1101/2024.06.05.597643, “Identification and characterization of a human MORC2 DNA binding region that is required for gene silencing” (bioRxiv, 2024)

Legend:
[1] = target: T1, MORC2 wild type, dephosphorylated (Homo sapiens) (UniProt Q9Y6X9); assay: fluorescence anisotropy; settings: FA: 50 mM NaCl, 3 mM MgCl2, 20 mM Na-HEPES pH 7.4, 1 mM TCEP, 10% glycerol, 0.025 mM ZnCl2, 50 ug/ml BSA, 1 nM nucleic acid, room temperature
T1 sequence: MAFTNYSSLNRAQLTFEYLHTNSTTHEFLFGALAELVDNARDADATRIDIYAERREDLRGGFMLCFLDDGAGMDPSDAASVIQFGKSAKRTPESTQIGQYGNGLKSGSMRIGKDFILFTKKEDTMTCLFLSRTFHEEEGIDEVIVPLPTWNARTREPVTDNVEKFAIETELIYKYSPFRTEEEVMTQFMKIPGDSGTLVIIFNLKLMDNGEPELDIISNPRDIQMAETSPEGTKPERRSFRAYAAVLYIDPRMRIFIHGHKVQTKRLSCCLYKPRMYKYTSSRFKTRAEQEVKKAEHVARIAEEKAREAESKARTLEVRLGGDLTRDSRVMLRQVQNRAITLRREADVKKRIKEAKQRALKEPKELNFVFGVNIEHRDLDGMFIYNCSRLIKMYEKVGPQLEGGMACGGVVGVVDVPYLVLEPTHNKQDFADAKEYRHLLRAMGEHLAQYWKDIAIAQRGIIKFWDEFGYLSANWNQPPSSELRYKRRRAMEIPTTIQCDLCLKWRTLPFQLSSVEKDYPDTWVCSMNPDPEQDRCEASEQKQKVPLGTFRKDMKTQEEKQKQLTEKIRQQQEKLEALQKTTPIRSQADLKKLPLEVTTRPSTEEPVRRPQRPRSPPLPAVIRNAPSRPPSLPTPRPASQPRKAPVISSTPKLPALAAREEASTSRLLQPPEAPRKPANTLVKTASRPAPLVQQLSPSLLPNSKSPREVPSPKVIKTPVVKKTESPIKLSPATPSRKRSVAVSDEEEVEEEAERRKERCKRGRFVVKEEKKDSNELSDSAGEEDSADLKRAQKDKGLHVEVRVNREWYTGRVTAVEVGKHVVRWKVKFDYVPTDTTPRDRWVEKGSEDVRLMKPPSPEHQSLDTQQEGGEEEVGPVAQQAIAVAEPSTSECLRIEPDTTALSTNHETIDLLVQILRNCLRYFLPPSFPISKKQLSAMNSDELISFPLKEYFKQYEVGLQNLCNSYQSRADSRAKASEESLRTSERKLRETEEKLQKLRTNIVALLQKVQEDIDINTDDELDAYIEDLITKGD

[2] = target: the molecule itself; assay: SEC-MALS; coiled coil 3 1.5 mg/mL, 150 mM NaCl, 3 mM MgCl2, 20 mM Na-HEPES pH 7.4, 0.5 mM TCEP, 1.5% glycerol, 0.025 mM ZnCl2; Wyatt 010 column
[3] = target: the molecule itself; assay: SEC-MALS; full-length MORC2 2 mg/mL, 150 mM NaCl, 3 mM MgCl2, 20 mM Na-HEPES pH 7.4, 0.5 mM TCEP, 1.5% glycerol, 0.025 mM ZnCl2, without AMP-PNP; Wyatt 030 column

ATATCGATGTATATATCTGACACGTGCCTGGAGACTAGGGAGTAATCCCCTTGGCGGTTAAAACGCGGGGGACAGCGCGTACGTGCGTTTAAGCGGTGCTAGAGCTGTCTACGACCAATTGAGCGGCCTCGGCACCGGGATTCTGATAT (double strand) [Nucleosome on 2-601-2 DNA]
Kd [1]: 16 nM

B1: MORC2 coiled coil 3 (domain or fragment, human, UniProt Q9Y6X9 900-1032, looked up)
chain: ALSTNHETIDLLVQILRNCLRYFLPPSFPISKKQLSAMNSDELISFPLKEYFKQYEVGLQNLCNSYQSRADSRAKASEESLRTSERKLRETEEKLQKLRTNIVALLQKVQEDIDINTDDELDAYIEDLITKGD
notes: also called CC3; source: E. coli BL21 (DE3) RIL, purified (HisTrap, TEV cleavage, S75 SEC); not shown: His6, N-terminal, cleaved
stoichiometry N [2]: 2

B2: full-length human MORC2 (natural protein, UniProt Q9Y6X9 1-1032, looked up)
chain: MAFTNYSSLNRAQLTFEYLHTNSTTHEFLFGALAELVDNARDADATRIDIYAERREDLRGGFMLCFLDDGAGMDPSDAASVIQFGKSAKRTPESTQIGQYGNGLKSGSMRIGKDFILFTKKEDTMTCLFLSRTFHEEEGIDEVIVPLPTWNARTREPVTDNVEKFAIETELIYKYSPFRTEEEVMTQFMKIPGDSGTLVIIFNLKLMDNGEPELDIISNPRDIQMAETSPEGTKPERRSFRAYAAVLYIDPRMRIFIHGHKVQTKRLSCCLYKPRMYKYTSSRFKTRAEQEVKKAEHVARIAEEKAREAESKARTLEVRLGGDLTRDSRVMLRQVQNRAITLRREADVKKRIKEAKQRALKEPKELNFVFGVNIEHRDLDGMFIYNCSRLIKMYEKVGPQLEGGMACGGVVGVVDVPYLVLEPTHNKQDFADAKEYRHLLRAMGEHLAQYWKDIAIAQRGIIKFWDEFGYLSANWNQPPSSELRYKRRRAMEIPTTIQCDLCLKWRTLPFQLSSVEKDYPDTWVCSMNPDPEQDRCEASEQKQKVPLGTFRKDMKTQEEKQKQLTEKIRQQQEKLEALQKTTPIRSQADLKKLPLEVTTRPSTEEPVRRPQRPRSPPLPAVIRNAPSRPPSLPTPRPASQPRKAPVISSTPKLPALAAREEASTSRLLQPPEAPRKPANTLVKTASRPAPLVQQLSPSLLPNSKSPREVPSPKVIKTPVVKKTESPIKLSPATPSRKRSVAVSDEEEVEEEAERRKERCKRGRFVVKEEKKDSNELSDSAGEEDSADLKRAQKDKGLHVEVRVNREWYTGRVTAVEVGKHVVRWKVKFDYVPTDTTPRDRWVEKGSEDVRLMKPPSPEHQSLDTQQEGGEEEVGPVAQQAIAVAEPSTSECLRIEPDTTALSTNHETIDLLVQILRNCLRYFLPPSFPISKKQLSAMNSDELISFPLKEYFKQYEVGLQNLCNSYQSRADSRAKASEESLRTSERKLRETEEKLQKLRTNIVALLQKVQEDIDINTDDELDAYIEDLITKGD
notes: Cloned into both 438-B (N-terminal His6-TEV) and 438-C (N-terminal His6-MBP-TEV); the tag was removed with TEV protease; also called wildtype MORC2; dephosphorylated MORC2; not shown: His6, N-terminal, cleaved
stoichiometry N [3]: 2
